Measurements reported in article PMC8251270 (2021).

Biological target: recombinant receptor‐binding motif (RBM) of SARS‐CoV‐2 spike (S) protein, residue 437–508 (SARS-CoV-2, UniProt P0DTC2 437-508)
Experiment: SPR

B1: mAb8 (antibody, V domains shown)
VH: DVKLVESGGGLVKLGGSLKLSCAASGFTFSTDYMSWVRQSPEKRLELVAAINSNGGTTYYPDTVKGRFIISRDNAKNTLYLQMSSLRSEDTALYYCARQVKNGLDYWGQGTSVTVSS
VL: DIQMTQTTSSLSASLGDRVTISCRASQDISNYLNWYQQKPDGTVKLLIYKTSRLHSGVPSRFRGSGSGTDYSLTISNLEEEDVATYFCQQGNTLPPTFGGGTKLEIK
**Q.** With B1 as the binder, how does the Kd read?
**A.** 57.4 nM
